Measurements from publication PMC6436931, “Activation of the Endonuclease that Defines mRNA 3′ Ends Requires Incorporation into an 8-Subunit Core Cleavage and Polyadenylation Factor Complex” (Molecular Cell, 2019).

Key:
Pap1 = Pap1 (Saccharomyces cerevisiae, UniProt P29468 1-568); assay: EMSA; EMSA: 50 nM RNA, 0.25-4.0 uM protein, protein diluted in 10 mM HEPES pH 7.9, 150 mM NaCl, 0.5 mM Mg(OAc)2, plus 1x loading dye (orange G, glycerol, EDTA); 30 min on ice; native 6% acrylamide/TBE PAGE; conditions: protein: recombinant; tags: SII (Pap1-SII) when alone; untagged in CPFpol and CPFcore; label: 5'-FAM
Cft2 = molecular target: T1, Cft2 (Saccharomyces cerevisiae, UniProt Q12102 1-859); assay: as above; conditions: protein: recombinant; tags: SII (Cft2-SII) when alone; untagged in CPFpol+Cft2 and CPFcore; label: 5'-FAM
T1 sequence: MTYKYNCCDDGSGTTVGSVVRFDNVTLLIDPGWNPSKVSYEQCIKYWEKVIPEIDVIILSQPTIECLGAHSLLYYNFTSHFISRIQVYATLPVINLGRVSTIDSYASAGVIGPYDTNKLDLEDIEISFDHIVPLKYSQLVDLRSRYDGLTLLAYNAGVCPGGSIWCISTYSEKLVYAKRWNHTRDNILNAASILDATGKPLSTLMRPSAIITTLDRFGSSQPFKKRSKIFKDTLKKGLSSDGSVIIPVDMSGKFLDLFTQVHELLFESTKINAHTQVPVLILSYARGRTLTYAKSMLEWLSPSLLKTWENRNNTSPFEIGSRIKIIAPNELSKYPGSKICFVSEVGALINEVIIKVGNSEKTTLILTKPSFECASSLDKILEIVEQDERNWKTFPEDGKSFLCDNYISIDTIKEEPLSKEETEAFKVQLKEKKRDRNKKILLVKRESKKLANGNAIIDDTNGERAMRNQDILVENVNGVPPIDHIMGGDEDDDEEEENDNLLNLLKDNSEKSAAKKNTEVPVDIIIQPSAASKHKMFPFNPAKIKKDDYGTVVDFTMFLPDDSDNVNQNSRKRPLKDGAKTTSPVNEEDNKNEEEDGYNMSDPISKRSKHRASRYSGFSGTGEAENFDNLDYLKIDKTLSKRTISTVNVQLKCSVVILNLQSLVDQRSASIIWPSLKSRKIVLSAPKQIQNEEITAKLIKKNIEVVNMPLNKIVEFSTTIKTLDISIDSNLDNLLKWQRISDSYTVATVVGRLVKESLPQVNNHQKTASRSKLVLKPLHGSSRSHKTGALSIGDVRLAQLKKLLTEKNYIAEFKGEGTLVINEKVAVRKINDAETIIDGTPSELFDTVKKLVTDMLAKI

Hrp1 (CF IB) = molecular target: T2, Hrp1 (CF IB) (Saccharomyces cerevisiae, UniProt Q99383 1-534); assay: as above; conditions: protein: recombinant; tags: 6H (6H-Hrp1); label: 5'-FAM
T2 sequence: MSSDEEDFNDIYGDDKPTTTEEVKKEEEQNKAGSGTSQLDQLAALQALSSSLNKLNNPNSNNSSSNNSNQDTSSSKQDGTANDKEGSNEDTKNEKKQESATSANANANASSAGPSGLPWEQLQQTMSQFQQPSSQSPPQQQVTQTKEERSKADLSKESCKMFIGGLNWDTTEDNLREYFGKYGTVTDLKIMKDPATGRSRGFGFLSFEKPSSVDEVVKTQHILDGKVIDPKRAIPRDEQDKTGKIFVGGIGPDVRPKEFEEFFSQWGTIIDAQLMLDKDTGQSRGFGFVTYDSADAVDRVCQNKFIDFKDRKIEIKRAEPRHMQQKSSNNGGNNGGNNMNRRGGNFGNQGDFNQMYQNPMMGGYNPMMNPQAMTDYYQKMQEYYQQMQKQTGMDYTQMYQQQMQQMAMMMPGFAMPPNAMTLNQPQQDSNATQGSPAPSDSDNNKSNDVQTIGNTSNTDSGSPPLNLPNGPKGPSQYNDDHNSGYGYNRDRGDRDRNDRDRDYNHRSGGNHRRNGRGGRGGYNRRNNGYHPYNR

[1] = molecular target: T3, CPFpol: Cft1-Pfs2_(-3C-SII)-Yth1_(-3C-8H)-Fip1-Pap1 (S. cerevisiae, UniProt Q06632 1-1357; P42841 1-465; Q06102 1-208; P45976 1-327; P29468 1-568); assay: pull-down; Strep-tagged bait proteins and complexes (100 μL at 1.5 μM) immobilised on Streptactin beads; prey CF IA, CF IB, Rna14-Rna15 or Pcf11-Clp1 (20 μL at 4.0 μM) bound 60 min at 4°C; 10 mM HEPES pH 7.9, 150 mM NaCl, 0.5 mM Mg(OAc)2, 0.05% Tween-20; SDS-PAGE, InstantBlue; conditions: both partners purified
T3 construct: Cft1, S. cerevisiae; Pfs2, S. cerevisiae; Yth1, S. cerevisiae; Fip1, S. cerevisiae; Pap1, S. cerevisiae; also called polymerase module; source: Sf9, purified as described previously (Casañal et al., 2017); not shown: StrepII, C-terminal, kept; copies: + + + +

[2] = molecular target: T4, CPFpol (no Pap1): Cft1-Pfs2_(-3C-SII)-Yth1_(-3C-8H)-Fip1 (S. cerevisiae, UniProt Q06632 1-1357; P42841 1-465; Q06102 1-208; P45976 1-327); assay: as above; conditions: both partners purified
T4 construct: Cft1, S. cerevisiae; Pfs2, S. cerevisiae; Yth1, S. cerevisiae; Fip1, S. cerevisiae; also called polymerase module without Pap1; source: Sf9, purified as described previously (Casañal et al., 2017); not shown: StrepII, C-terminal, kept; copies: + + +

[3] = molecular target: T5, CPF_(core): Cft1-Pfs2_(-3C-SII)-Yth1_(-3C-8H)-Fip1-Pap1-Cft2-Ysh1-Mpe1 (S. cerevisiae, UniProt Q06632 1-1357; P42841 1-465; Q06102 1-208; P45976 1-327; P29468 1-568; Q12102 …); assay: as above; conditions: both partners purified
T5 construct: Cft1, S. cerevisiae; Pfs2, S. cerevisiae; Yth1, S. cerevisiae; Fip1, S. cerevisiae; Pap1, S. cerevisiae; Cft2, S. cerevisiae; Ysh1, S. cerevisiae; Mpe1, S. cerevisiae; also called eight-subunit core cleavage and polyadenylation factor complex; source: Sf9, co-expressed from one multi-gene baculovirus construct, purified (StrepTactin, Mono Q, Superose 6); not shown: StrepII, C-terminal, kept; …

Chain of Pap1 (P29468 whole entry): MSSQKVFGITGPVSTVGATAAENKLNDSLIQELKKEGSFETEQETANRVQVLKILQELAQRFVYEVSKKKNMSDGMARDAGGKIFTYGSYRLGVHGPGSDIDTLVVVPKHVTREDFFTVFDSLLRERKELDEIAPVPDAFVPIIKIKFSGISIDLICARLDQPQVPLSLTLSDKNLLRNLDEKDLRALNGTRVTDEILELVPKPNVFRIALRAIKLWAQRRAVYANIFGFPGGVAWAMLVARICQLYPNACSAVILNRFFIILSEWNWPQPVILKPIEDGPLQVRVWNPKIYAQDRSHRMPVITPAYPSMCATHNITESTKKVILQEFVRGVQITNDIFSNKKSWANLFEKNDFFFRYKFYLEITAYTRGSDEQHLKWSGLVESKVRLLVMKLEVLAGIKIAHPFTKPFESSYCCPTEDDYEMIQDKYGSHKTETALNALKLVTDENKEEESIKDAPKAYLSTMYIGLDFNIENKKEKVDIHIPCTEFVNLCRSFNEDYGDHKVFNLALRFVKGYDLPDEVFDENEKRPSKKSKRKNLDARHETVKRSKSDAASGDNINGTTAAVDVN
T4 sequence (Q06632 whole entry, chain 1 of 4): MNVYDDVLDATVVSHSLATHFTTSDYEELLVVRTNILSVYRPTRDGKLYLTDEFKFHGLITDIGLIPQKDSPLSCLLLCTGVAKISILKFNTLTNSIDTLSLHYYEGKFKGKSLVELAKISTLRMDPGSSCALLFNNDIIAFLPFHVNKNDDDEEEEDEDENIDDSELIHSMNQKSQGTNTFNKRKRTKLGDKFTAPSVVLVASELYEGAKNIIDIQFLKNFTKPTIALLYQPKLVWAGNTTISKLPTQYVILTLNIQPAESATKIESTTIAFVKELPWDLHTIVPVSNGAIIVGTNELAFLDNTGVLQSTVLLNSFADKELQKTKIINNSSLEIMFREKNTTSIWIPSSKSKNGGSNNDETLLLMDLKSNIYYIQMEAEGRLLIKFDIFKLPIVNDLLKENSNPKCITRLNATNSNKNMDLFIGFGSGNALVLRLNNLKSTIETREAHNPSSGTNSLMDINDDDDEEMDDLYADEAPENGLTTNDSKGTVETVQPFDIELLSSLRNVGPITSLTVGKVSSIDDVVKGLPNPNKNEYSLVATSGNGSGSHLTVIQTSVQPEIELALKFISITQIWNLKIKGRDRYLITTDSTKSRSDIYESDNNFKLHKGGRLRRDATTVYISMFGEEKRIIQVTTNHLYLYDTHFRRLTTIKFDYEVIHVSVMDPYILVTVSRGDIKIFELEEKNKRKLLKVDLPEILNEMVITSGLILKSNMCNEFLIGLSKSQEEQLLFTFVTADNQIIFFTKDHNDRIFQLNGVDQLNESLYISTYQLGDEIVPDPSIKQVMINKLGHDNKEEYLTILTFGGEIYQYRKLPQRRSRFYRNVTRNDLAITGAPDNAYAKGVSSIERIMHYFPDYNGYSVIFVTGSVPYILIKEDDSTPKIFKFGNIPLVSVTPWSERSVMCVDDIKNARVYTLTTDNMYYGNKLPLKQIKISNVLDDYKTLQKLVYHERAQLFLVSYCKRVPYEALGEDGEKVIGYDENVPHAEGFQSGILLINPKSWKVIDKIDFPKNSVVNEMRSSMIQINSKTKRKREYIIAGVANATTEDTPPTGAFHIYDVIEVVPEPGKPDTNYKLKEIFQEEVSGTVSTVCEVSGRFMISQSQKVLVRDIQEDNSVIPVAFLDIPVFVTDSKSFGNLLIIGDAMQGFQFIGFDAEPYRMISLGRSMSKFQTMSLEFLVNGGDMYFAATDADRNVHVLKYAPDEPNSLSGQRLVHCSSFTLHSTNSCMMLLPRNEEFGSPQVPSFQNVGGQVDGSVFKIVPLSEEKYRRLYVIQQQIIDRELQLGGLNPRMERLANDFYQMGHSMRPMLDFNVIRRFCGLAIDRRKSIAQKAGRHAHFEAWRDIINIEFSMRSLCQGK
T4 sequence (P42841 whole entry, chain 2 of 4): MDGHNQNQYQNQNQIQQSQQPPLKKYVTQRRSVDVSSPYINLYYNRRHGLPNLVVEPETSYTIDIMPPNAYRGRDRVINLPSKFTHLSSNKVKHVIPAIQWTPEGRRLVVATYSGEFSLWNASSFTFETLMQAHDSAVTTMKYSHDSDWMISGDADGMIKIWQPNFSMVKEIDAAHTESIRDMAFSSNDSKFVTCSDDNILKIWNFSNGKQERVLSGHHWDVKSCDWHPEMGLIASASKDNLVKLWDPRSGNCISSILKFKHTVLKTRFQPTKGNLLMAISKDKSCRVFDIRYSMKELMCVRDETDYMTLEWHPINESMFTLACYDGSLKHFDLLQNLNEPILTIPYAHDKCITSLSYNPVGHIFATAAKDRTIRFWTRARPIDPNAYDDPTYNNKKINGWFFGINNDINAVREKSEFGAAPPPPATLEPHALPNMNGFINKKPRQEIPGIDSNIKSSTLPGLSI
T4 sequence (Q06102 whole entry, chain 3 of 4): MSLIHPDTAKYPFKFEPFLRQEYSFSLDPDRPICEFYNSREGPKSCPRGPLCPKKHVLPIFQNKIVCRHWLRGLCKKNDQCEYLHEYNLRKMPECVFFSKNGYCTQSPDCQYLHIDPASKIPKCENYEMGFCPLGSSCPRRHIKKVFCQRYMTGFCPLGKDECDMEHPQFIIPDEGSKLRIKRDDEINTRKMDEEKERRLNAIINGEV
T4 sequence (P45976 whole entry, chain 4 of 4): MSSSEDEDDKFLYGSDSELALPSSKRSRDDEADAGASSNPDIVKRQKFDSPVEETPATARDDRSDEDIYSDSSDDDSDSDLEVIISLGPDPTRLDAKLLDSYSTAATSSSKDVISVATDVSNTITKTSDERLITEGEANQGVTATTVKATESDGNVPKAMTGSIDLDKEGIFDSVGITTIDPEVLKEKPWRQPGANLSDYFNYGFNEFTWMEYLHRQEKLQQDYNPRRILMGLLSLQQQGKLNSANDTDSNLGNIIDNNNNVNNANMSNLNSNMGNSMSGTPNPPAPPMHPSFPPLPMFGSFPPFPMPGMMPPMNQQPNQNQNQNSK

Binder	binding result (Pap1)	binding result (Cft2)	binding result (Hrp1 (CF IB))	binding result [1]	binding result [2]	binding result [3]
CCCCCCCCCCCCCCC (ssRNA) [C15]	no binding	no binding	no binding	–	–	–
Rna14-Rna15 complex (6H-Rna14-Rna15) (complex, S. cerevisiae, Rna14, S. cerevisiae; Rna15, S. cerevisiae; The pull-down methods call the prey 'untagged' though the construct carries a His6 tag; also called Rna14–15; source: E. coli BL21 Star (DE3), purified as described previously (Gordon et al., 2011)) chain 1: MSSSTTPDLLYPSADKVAEPSDNIHGDELRLRERIKDNPTNILSYFQLIQYLETQESYAKVREVYEQFHNTFPFYSPAWTLQLKGELARDEFETVEKILAQCLSGKLENNDLSLWSTYLDYIRRKNNLITGGQEARAVIVKAFQLVMQKCAIFEPKSSSFWNEYLNFLEQWKPFNKWEEQQRIDMLREFYKKMLCVPFDNLEKMWNRYTQWEQEINSLTARKFIGELSAEYMKARSLYQEWLNVTNGLKRASPINLRTANKKNIPQPGTSDSNIQQLQIWLNWIKWERENKLMLSEDMLSQRISYVYKQGIQYMIFSAEMWYDYSMYISENSDRQNILYTALLANPDSPSLTFKLSECYELDNDSESVSNCFDKCTQTLLSQYKKIASDVNSGEDNNTEYEQELLYKQREKLTFVFCVYMNTMKRISGLSAARTVFGKCRKLKRILTHDVYVENAYLEFQNQNDYKTAFKVLELGLKYFQNDGVYINKYLDFLIFLNKDSQIKTLFETSVEKVQDLTQLKEIYKKMISYESKFGNLNNVYSLEKRFFERFPQENLIEVFTSRYQIQNSNLIKKLELTYMYNEEEDSYFSSGNGDGHHGSYNMSSSDRKRLMEETGNNGNFSNKKFKRDSELPTEVLDLLSVIPKRQYFNTNLLDAQKLVNFLNDQVEIPTVESTKSG chain 2: MNRQSGVNAGVQNNPPSRVVYLGSIPYDQTEEQILDLCSNVGPVINLKMMFDPQTGRSKGYAFIEFRDLESSASAVRNLNGYQLGSRFLKCGYSSNSDISGVSQQQQQQYNNINGNNNNNGNNNNNSNGPDFQNSGNANFLSQKFPELPSGIDVNINMTTPAMMISSELAKKPKEVQLKFLQKFQEWTRAHPEDAVSLLELCPQLSFVTAELLLTNGICKVDDLIPLASRPQEEASATNNNSVNEVVDPAVLNKQKELLKQVLQLNDSQISILPDDERMAIWDLKQKALRGEFGAF	–	–	–	binds	binds	binds
UUUUUUUUUUUUUUU (ssRNA) [U15]	no binding	no binding	binds	–	–	–
AAAAAAAAAAAAAAA (ssRNA) [A15]	no binding	no binding	–	–	–	–
AAGAACGUUAUUUAUAUUUCAAAUUUUUCUUUUUU (ssRNA) [CYC1d EMSA probe]	no binding	binds	binds	–	–	–
CGUUAUUUAUAUUUCAAAUUUUUCU (ssRNA) [CYC1f EMSA probe]	no binding	binds	binds	–	–	–
GGGGGGGGGGGGGGG (ssRNA) [G15]	no binding	binds	binds	–	–	–
